Measurements as given in US6200577A, “Anti-herpesviral agents and assays therefor” (priority 1996, dated 2001).
Entries after “also recorded” stand apart in the source; their conditions may differ.

Key:
[1] = Solubility of synthetic peptides in buffer; format: physicochemical; details: for Solubility following purification: HPLC-purified peptides; for Solubility: peptides dissolved in 20 mM Tris-HCl, pH 8.0, 250 mM NaCl, unpurified preparations
Method: Synthesis and Purification of Oligopeptides. Peptides were synthesised by continuous flow Fmoc chemistry (Atherton and Sheppard, 1989; McLean et al., 1991) and, where stated in the text, were purified by preparative reverse-phase HPLC (Owsianka et al., 1993). The Mr values of peptides were determined by fast atom bombardment mass spectrometry (M-Scan) and corresponded to the predicted values. Peptides were dissolved in 20 mM Tris-HCl, pH 8.0, 250 mM NaCl and centrifuged at 11,500 g for 1 minute prior to use. […] Precipitates were removed by centrifugation before use.

[2] = target: T1, VP16/full-length VP22 interaction (Human herpesvirus 1, UniProt P06492); test: Far Western analysis of peptides blocking VP16 binding to full-length VP22 (vUL49ep L-particle extract); parameters: species or system HSV-1; details: strips pre-incubated with 1 mg peptide, FIG. 8
T1 construct: Plasmid pETVP16 was used to express full-length VP16 under the control of the T7 RNA polymerase promoter; made in house; host or cells: VP16: E. coli BL21(DE3); VP22: L-particles of recombinant virus vUL49ep grown in BHK cells
Method: FIG. 8 Blocking of the interaction between VP16 and full length VP22 by pure peptides D and E. A vUL49ep L-particle extract was run on a 10% polyacrylamide gel and the proteins transferred to a nitrocellulose membrane. The blot was cut into strips, with each strip containing the equivalent of approximately 3×10^9 L-particles. Strips were pre-incubated with 1 mg of each of the following peptides: lane 2, no peptide; lane 3, peptide C; lane 4, peptide D; lane 5, peptide E. 2 μg of pure VP16 was then added to each incubation and bound VP16 was detected by LP1 antibody. Two strips were incubated with either LPl (lane 1) or 9220 antibody (lane 6), each at a dilution of 1:1000. The apparent molecular weights of VP16 (65 KDa) and tagged VP22 (40 KDa) are shown.
Following electrophoresis, proteins were electrotransferred to either Hybond or ProBlott (Applied Biosystems) membrane and the membrane was incubated in renaturation buffer (50 mM Tris-HCl, pH 8.0, 150 mM NaCl, 10% glycerol, 1 mM DTT) at 4° C. for 5-6 hours.
For membranes probed with either VP16 or VP22trunc, blocking was performed overnight as described for Western blot analysis. Probing with epitope-tagged VP22 or VP16 was performed in 20 mM Tris-HCl, pH 8.0, 250 mM NaCl for 1.5 hours at ambient temperature. Excess probe was removed by washing 4 times (10 minutes per wash) in 20 mM Tris-HCl, pH8.0, 250 mM NaCl, followed by incubation with the appropriate antibody at a dilution of 1:1000 in TTBS/1% gelatin for 1.5-2 hours. Bound antibody was detected as described for Western blot analysis.
The results presented thus far have established that peptides D and E block the interaction between VP16 and VP22trunc. The inhibitory effect of the peptides was further tested to examine whether they were capable of blocking the interaction of VP16 with full-length VP22.

[3] = target: T2, VP16/VP22trunc interaction (Human herpesvirus 1, UniProt P06492); test: ELISA of peptide inhibition of VP16 binding to VP22trunc; parameters: species or system HSV-1; details: for Inhibition of VP16 binding to VP22trunc in ELISA: D and E pure preparations, effect at 100 and 500 μg/ml, VP16 1.6 μg/ml, 160 ng VP22trunc, FIG. 9; for IC50: converted from μg/ml, maximum molarities, read-out: Molarity for 50% inhibition of VP16 binding (ELISA); for IC50 / Concentration for 50% inhibition of VP16 binding (ELISA): peptides not 100% soluble; for Concentration for 50% inhibition of VP16 binding (ELISA): pure peptide preparations, maximum values
T2 construct: Plasmid pETVP16 was used to express full-length VP16 under the control of the T7 RNA polymerase promoter; made in house; host or cells: E. coli BL21(DE3)
Method: FIG. 9 Inhibitory effect of peptides D and E on the VP22trunc-VP16 interaction in ELISAs. Microtitre plates were coated with 160 ng of VP22trunc and blocked with PBS/10% NCS. Before addition to the wells, five-fold dilutions of the peptides, ranging from 500 μg/ml to 1 g/ml, were incubated with VP16 (1.6 μg/ml). Bound VP16 was detected with LP1 at a dilution of 1:1000. The legend for the peptides added is shown to the right of the graph. Values are shown relative to those obtained in the absence of the peptide.
(§1) Dilutions of proteins in PBS were coated overnight onto flat bottomed micro-titre plates (Dynatech) at 37° C. and then blocked with either 2% BSA or 10% new-born calf serum (NCS) in PBS for 1 hour at 37° C. Specific binding of a second protein to the plate-bound protein was performed for 1.5-2 hours at ambient temperature. a Excess secondary protein was removed by washing four times with PBS, 0.3% Tween 20. Bound protein was detected by incubation for 1.5-2 hours with LP1 antibody in PBS, 1% gelatin or PBS, 2% NCS. The bound antibody was detected by incubation for 1 hour at ambient temperature with anti-mouse antibody conjugated to HRP (1:500) and visualised with Smg/ml enzyme substrate 2,2'-azino-bis(3-ethylbenzthiazoline-6-sulphonic acid) (ABTS; Sigma) in citrate-phosphate buffer containing 6 μl hydrogen peroxide in a total volume of 20 ml. Optical densities were measured on a Titertek Multiscan PLUS instrument.
To adopt a more quantitative approach, an ELISA for VP16 binding to VP22trunc was developed. Optimal conditions were determined by coating wells with various quantities of VP22trunc followed by blocking with 2% BSA. Plates were then incubated with dilutions of VP16 and the bound VP16 detected with LP1.
The studies presented above have provided strong evidence in support of peptide inhibition of the interaction between VP16 and VP22. However, quantitative analysis of the ability of peptides to block any interaction is difficult to perform by the above methods. Therefore, using the ELISA system described in Results Section 2(iii) with the exception that PBS/10% NCS was utilised as a blocking agent, the inhibitory effects of peptides D and E were examined. This modification arose due to nonspecific binding of the peptides to wells when BSA was used for blocking (data not shown).

[4] = target: T3, VP16 (Human herpesvirus 1, UniProt P06492); test: ELISA of direct binding of VP16 to plate-coated peptides; parameters: species or system HSV-1; details: wells coated with peptide up to 500 μg/ml; VP16 1.6 μg/ml; FIG. 10
T3 construct: Plasmid pETVP16 was used to express full-length VP16 under the control of the T7 RNA polymerase promoter; made in house; host or cells: E. coli BL21(DE3)
Method: FIG. 10 Binding of VP16 to peptides. Microtitre plates were coated with 5-fold dilutions of peptides ranging from 500 μg/ml to 1 μg/ml and blocked with PBS/10% NCS. VP16 was then added to a final concentration of 1.6 μg/ml and detected with LP1. The legend for the peptides added is shown to the right of the graph.
as §1
To examine whether VP16 could bind directly to the peptides, wells were coated with each peptide (A-J) at a range of concentrations from […] to 500 μg/ml and the plate was then blocked with […]. […] Nonetheless, the data for peptides D and E implicate direct binding of these peptides to VP16 as the mechanism for inhibiting its interaction with VP22. Peptide H also was active in experiments which prevented gB binding to VP22trunc [Section 4 (iii)] and thus also forms an aspect of the invention.

T1 sequence (P06492 whole entry): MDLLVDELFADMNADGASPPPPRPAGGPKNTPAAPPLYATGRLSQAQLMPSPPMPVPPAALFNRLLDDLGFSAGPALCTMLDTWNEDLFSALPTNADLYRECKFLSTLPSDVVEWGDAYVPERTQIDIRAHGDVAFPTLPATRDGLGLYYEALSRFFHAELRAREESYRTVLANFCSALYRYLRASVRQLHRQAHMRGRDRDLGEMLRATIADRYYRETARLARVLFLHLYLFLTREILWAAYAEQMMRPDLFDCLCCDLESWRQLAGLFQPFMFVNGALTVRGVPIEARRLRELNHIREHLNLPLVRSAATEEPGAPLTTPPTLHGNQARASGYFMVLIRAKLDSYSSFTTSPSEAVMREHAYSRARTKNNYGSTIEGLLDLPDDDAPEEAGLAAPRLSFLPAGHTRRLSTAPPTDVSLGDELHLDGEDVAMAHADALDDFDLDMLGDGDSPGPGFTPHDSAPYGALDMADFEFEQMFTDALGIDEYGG
T3 sequence (P06492 whole entry): as above
T2 sequence (P06492 whole entry): as above

Sequence | Solubility following purification [1] | Solubility [1] | Blocking of VP16 binding to full-length VP22 (Far Western) [2] | Inhibition of VP16 binding to VP22trunc in ELISA [3] | IC50 [3] [µM] | Concentration for 50% inhibition of VP16 binding (ELISA) [3] [µg/mL] | Direct binding of VP16 to plate-coated peptide (ELISA) [4]
CAAVGRLAAMHARMAAVQLW [Peptide E] | not 100% soluble | partly; also recorded: partially insoluble | completely blocks binding of VP16 to VP22 | could inhibit binding of VP16 to VP22trunc | 44.1 | 85.7 | binding was found with higher concentrations
FSTAPPNPDAPWTPRVAGFN [Peptide C] |  | soluble | does not hinder the interaction | neither peptides B, C nor F had any effect |  |  | binding did not occur
TPRVAGFNKRVFCAAVGRLA [Peptide D] | not 100% soluble | partly; also recorded: partially insoluble | completely blocks binding of VP16 to VP22 | could inhibit binding of VP16 to VP22trunc | 99.7 | 212.5 | binding was found with higher concentrations
